# Measurements: publication PMC5771465 (Nature structural & molecular biology, 2016)
# B1: His-tagged OmCI carrying two glycosylation mutations (N78Q/N102Q) (natural protein)
# chain: DSESDCTGSEPVDAFQAFSEGKEAYVLVRSTDPKARDCLKGEPAGEKQDNTLPVMMTFKQGTDWASTDWTFTLDGAKVTATLGQLTQNREVVYDSQSHHCHVDKVEKEVPDYEMWMLDAGGLEVEVECCRQKLEELASGRNQMYPHLKDC
# How the values were obtained:
# [1] = molecular target: C5-OmCI complex (human | not stated (tick)) (UniProt Q5YD59); test: SEC-MALS
# complement C5 = complement C5 (human, UniProt P01031); test: crystal structure
molecule,measurement,setting,value
RaCI3 (from UniProt A0A146B485 25-102) (natural protein),stoichiometry N,[1],1
B1,binding result,complement C5,binds
